The values below come from PMC11957191.

Assay [1] deals with myristoylated human Arf1 (myrArf1), GTP-bound form at a membrane surface (human) (UniProt P84077). Briefly: not stated; binding test of the K391A mutant shown in Fig. SI5; method not given.
Assay [2] shares this target.
Assay [3] concerns the target myrArf1 with Glu54 mutated to Ala (human) (UniProt P84077).
For assay [4], the target named is myristoylated human Arf1 (myrArf1), GTP-bound form at a membrane surface (human) (UniProt P84077). This is another data set of the same source.

Chain of myristoylated human Arf1 (myrArf1), GTP-bound form at a membrane surface (human) (P84077 whole entry): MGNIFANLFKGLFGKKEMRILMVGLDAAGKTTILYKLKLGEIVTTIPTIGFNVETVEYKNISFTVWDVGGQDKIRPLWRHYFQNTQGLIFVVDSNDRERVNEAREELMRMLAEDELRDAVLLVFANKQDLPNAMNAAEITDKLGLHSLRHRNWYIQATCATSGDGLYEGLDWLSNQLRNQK
Chain of myrArf1 with Glu54 mutated to Ala (human) (P84077 other isoform, or with tags, fused parts or gaps, change not shown): as the sequence (P84077 whole entry) above, with E54A counted along it
Chain of wt PZA, [325–724]ASAP1 (PH domain, Arf GAP zinc-binding domain and ankyrin repeats) (Q9QWY8 325-724): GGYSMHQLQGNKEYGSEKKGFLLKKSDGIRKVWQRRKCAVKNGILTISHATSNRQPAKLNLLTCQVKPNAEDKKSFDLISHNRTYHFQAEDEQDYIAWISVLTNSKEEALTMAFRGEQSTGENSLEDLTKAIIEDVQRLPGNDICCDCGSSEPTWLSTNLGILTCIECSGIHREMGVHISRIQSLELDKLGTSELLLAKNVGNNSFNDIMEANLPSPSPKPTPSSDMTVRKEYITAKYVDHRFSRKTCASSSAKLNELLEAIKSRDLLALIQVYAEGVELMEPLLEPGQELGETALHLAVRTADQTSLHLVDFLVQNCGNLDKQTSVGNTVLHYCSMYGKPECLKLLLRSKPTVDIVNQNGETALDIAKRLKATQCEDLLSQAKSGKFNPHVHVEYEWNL
Chain of ASAP1 PZA with Lys391 mutated to Ala (Q9QWY8 other isoform, or with tags, fused parts or gaps, change not shown): as the sequence (Q9QWY8 325-724) above, with K67A counted along it
Chain of ASAP1 PZA with His405 mutated to Glu (Q9QWY8 other isoform, or with tags, fused parts or gaps, change not shown): as the sequence (Q9QWY8 325-724) above, with H81E counted along it
Chain of ASAP1 PZA with Phe438 mutated to Ala (Q9QWY8 other isoform, or with tags, fused parts or gaps, change not shown): as the sequence (Q9QWY8 325-724) above, with F114A counted along it
Chain of ΔN14PZA, ASAP1 PZA without residues 325–338 (Q9QWY8 339-724, stated change not applied): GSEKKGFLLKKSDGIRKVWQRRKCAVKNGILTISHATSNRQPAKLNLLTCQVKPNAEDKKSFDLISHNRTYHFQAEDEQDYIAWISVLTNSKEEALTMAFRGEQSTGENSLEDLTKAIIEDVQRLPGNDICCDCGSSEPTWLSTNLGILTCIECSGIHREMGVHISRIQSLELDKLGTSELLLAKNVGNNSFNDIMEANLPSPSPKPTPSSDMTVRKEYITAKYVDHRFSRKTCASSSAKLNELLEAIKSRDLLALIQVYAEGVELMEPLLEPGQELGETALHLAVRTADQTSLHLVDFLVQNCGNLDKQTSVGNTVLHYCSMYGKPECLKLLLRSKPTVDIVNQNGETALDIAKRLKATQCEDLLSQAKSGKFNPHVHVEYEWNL

Take “ASAP1 PH domain with Lys391 mutated to Ala (from UniProt Q9QWY8 325-451) (domain or fragment)”: the fold reduction of binding against wild type in assay [1] is 2 fold. For “ASAP1 PZA with His405 mutated to Glu (from UniProt Q9QWY8 325-724) (domain or fragment)”, the ArfGAP activity (C50 of PZA for 50% GTP hydrolysis in 3 min), fold reduction against wild type in assay [2] worked out at 5 fold.

For the substance “wt PZA, [325–724]ASAP1 (PH domain, Arf GAP zinc-binding domain and ankyrin repeats) (from UniProt Q9QWY8 325-724) (domain or fragment)”, the ArfGAP activity (C50 of PZA for 50% GTP hydrolysis in 3 min), fold reduction against wild type in assay [3] worked out at 70 fold. “ΔN14PZA, ASAP1 PZA without residues 325–338 (from UniProt Q9QWY8 339-724) (domain or fragment)”: in assay [4], the GAP activity on myrArf1·GTP relative to wt PZA (fold of wt PZA) is < 0.01. Turning to “ASAP1 PZA with Phe438 mutated to Ala (from UniProt Q9QWY8 325-724) (domain or fragment)”, in assay [2], the ArfGAP activity (C50 of PZA for 50% GTP hydrolysis in 3 min), fold reduction against wild type amounted to 15 fold. In turn, “ASAP1 PZA with Lys391 mutated to Ala (from UniProt Q9QWY8 325-724) (domain or fragment)” registered an ArfGAP activity (C50 of PZA for 50% GTP hydrolysis in 3 min), fold reduction against wild type in assay [2] of 100 fold.
